# Results: publication PMC7862291 (2021)
# B1: wild type human KMO (Hs-KMO), NanoBRET constructs [human] / itself (parent complex)
# chain: MDSSVIQRKKVAVIGGGLVGSLQACFLAKRNFQIDVYEAREDTRVATFTRGRSINLALSHRGRQALKAVGLEDQIVSQGIPMRARMIHSLSGKKSAIPYGTKSQYILSVSRENLNKDLLTAAEKYPNVKMHFNHRLLKCNPEEGMITVLGSDKVPKDVTCDLIVGCDGAYSTVRSHLMKKPRFDYSQQYIPHGYMELTIPPKNGDYAMEPNYLHIWPRNTFMMIALPNMNKSFTCTLFMPFEEFEKLLTSNDVVDFFQKYFPDAIPLIGEKLLVQDFFLLPAQPMISVKCSSFHFKSHCVLLGDAAHAIVPFFGQGMNAGFEDCLVFDELMDKFSNDLSLCLPVFSRLRIPDDHAISDLSMYNYIEMRAHVNSSWFIFQKNMERFLHAIMPSTFIPLYTMVTFSRIRYHEAVQRWHWQKKVINKGLFFLGSLIAISSTYLLIHYMSPRSFLRLRRPWNWIAHFRNTTCFPAKAVDSLEQISNLISR
# Variants of: B1
# Test: NanoBRET; HEK293T cells; + ligand (TMR ligand); n = 6; read off a plot
row,response [mBU],Variant
1,~78,"chain 1 D184A, chain 1 Y185P, chain 1 Q187A"
